pKd: −log10 of the molar value.
Assays:
[1] = target: Abl2 SH2 domain (UniProt Q4JIM5); assay: SH2-coupled bead pull-down from lysate, blot; details: reference: wild type
[2] = target: Abl2 Src homology 2 (SH2) domain (UniProt Q4JIM5); assay: pull-down; Abl2 SH2 covalently linked to AminoLink beads, 1 μM; 0 to 2 μM PDGFRβ CD; 1 h at 4 °C; 50 mM Hepes pH 7.25, 150 mM NaCl, 5% glycerol, 1 mM DTT; SDS-PAGE, Coomassie densitometry, one-site specific binding fit

Chain of UniProt Q4JIM5 (Q4JIM5 173-263): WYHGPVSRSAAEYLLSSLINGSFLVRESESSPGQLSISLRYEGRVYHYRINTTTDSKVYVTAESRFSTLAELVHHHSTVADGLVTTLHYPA

## PDGFRβ (from UniProt P09619) Y751F
[1]; sites Y751
  other: percent reduction relative to WT: 10%

## PDGFRβ (from UniProt P09619) Y771F
[1]; sites Y771
  other: percent reduction relative to WT: 90%

## autophosphorylated PDGFRβ cytoplasmic domain (CD) (from UniProt P09619 554-1106) (domain or fragment)
[2]
  pKd: 6.59
